Measurements from patent US20200392228A1 (PANDION OPERATIONS, published 2020).
Like-named read-outs stand apart in the source and are kept apart here.

T1: mouse MAdCAM expressed on cells (mouse, UniProt Q61826 22-405)
T1 construct: whole, on cells
T1 sequence (looked up): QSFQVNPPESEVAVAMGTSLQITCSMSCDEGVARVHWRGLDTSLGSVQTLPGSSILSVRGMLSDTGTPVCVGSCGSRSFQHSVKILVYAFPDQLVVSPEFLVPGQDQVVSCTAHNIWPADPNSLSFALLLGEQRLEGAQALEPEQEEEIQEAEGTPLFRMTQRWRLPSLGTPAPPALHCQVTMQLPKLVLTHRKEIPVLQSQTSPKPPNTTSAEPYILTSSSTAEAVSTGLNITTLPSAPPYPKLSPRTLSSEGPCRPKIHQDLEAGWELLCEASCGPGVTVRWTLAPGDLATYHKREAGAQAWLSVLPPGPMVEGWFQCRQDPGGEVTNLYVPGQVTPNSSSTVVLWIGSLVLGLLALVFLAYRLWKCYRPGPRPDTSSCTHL

T2: human MAdCAM expressed on cells (human, UniProt Q13477 19-382)
T2 construct: whole, on cells; also called MADCAM1
T2 sequence (looked up): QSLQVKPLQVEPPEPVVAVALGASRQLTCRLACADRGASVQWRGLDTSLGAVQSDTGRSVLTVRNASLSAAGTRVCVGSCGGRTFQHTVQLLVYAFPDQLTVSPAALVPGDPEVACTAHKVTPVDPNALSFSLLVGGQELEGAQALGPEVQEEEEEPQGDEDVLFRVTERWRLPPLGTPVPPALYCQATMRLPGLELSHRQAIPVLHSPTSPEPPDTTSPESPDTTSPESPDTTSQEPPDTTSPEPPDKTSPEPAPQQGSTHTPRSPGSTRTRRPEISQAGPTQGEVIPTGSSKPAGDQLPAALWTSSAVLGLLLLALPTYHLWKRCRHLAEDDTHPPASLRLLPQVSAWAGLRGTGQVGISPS

T3: human MAdCAM protein (human, UniProt Q13477 19-317)
T3 construct: used for Octet, SPR, ELISA and plate capture; construct not described; also called recombinant human MAdCAM; soluble monomeric human MAdCAM
T3 sequence (looked up): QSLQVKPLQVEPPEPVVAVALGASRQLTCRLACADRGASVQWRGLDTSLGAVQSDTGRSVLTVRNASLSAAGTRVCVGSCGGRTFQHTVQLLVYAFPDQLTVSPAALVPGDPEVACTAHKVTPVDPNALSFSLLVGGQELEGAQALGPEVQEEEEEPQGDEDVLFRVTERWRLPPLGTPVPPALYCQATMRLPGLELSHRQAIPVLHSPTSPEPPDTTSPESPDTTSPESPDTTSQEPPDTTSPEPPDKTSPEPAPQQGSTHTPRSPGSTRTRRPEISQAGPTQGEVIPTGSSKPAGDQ

T4: mouse MAdCAM protein (mouse, UniProt Q61826 22-365, limits assumed)
T4 construct: also called recombinant mouse MAdCAM-1; mMAdCAM-1
T4 sequence (looked up): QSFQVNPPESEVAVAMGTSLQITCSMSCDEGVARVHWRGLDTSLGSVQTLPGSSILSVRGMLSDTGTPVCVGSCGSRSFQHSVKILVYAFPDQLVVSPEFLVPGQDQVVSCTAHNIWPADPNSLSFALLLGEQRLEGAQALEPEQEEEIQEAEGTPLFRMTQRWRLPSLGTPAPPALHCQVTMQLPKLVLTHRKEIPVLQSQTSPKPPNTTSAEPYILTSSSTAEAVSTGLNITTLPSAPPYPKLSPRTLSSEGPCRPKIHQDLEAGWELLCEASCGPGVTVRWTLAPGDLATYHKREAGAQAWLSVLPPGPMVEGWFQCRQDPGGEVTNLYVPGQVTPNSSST


Key:
[1] = target: T1, mouse MAdCAM expressed on cells; test: cell binding
[2] = target: T2, human MAdCAM expressed on cells; test: cell binding
[3] = target: T3, human MAdCAM protein; test: Octet
[4] = target: T4, mouse MAdCAM protein; test: Octet
[5] = target: T3, human MAdCAM protein; test: Octet; remark: listed apart in the source
[6] = target: T4, mouse MAdCAM protein; test: Octet; remark: listed apart in the source
[7] = target: T1, mouse MAdCAM expressed on cells; test: cell binding; remark: listed apart in the source
[8] = target: T2, human MAdCAM expressed on cells; test: cell binding; remark: listed apart in the source

| binding result [1] | binding result [2] | binding result [3] | binding result [4] | binding result [5] | binding result [6] | binding result [7] | binding result [8] | Binder |
| --- | --- | --- | --- | --- | --- | --- | --- | --- |
| – | – | – | – | binds | no binding | no binding | binds | MAdCAM antibody Clone ID 6 of Table 6 (scFv) (scFv, also called Antibody Clone 6) scFv: EVQLLESGGGLVQPGGSLRLSCAASGFTFNNYAFHWVRQAPGKGLEWVSRINSYGTSTTYADSVKGRFTISRDNSKNTLYLQMNSLRAEDTAVYYCAREGPVAGYWYFDLWGQGTLVTVSSGGGGSGGGGSGGGGSGGGGSDIQMTQSPSSLSASVGDRVTITCRASQIIGTNLAWYQQKPGKAPKLLIYGASSLQSGVPSRFSGSGSGTDFTLTISSLQPEDFATYYCQQSYRLPFTFGQGTKVEIK |
| – | – | – | – | binds | binds | binds | binds | MAdCAM antibody Clone ID 7 of Table 6 (scFv) (scFv) scFv: QVQLVQSGAEVKKPGASVKVSCKASGYTFTGYHIHWVRQAPGQGLEWMGIINPSGGSTIYAQKFQGRVTMTRDTSTSTVYMELSSLRSEDTAVYYCAKDWSSWYLGPFDYWGQGTLVTVSSGGGGSGGGGSGGGGSGGGGSDIQMTQSPSSLSASVGDRVTITCRASQNISSSLNWYQQKPGKAPKLLIYAASSLQSGVPSRFSGSGSGTDFTLTISSLQPEDFATYYCQQSYTTPYTFGQGTKVEIK |
| binds | binds | binds | binds | – | – | – | – | MAdCAM antibody Clone ID 79 of Table 7 (IgG) (antibody, V domains shown, IgG format) VH: EVQLLESGGGLVKPGGSLRLSCAASGFTFDDYAMHWVRQAPGKGLEWVASITSSSAFIDYAASVKGRFTISRDDSKNTLYLQMNSLKTEDTAVYYCARERVDWNSYFDLWGRGTLVTVSS VL: EIVMTQSPATLSVSPGERATLSCRASQGISNSYLAWYQQKPGQAPRLLIYGASTRATGIPARFSGSGSGTEFTLTISSLQSEDFAVYYCQQYYTYPPTFGPGTKVDIK |
| – | – | – | – | binds | no binding | no binding | binds | MAdCAM antibody Clone ID 20 of Table 6 (scFv) (scFv) scFv: EVQLLESGGGLVQPGGSLRLSCAASGFTFDDYAMHWVRQAPGKGLEWVSYIDTSSSHLYYADSVKGRFTISRDNSKNTLYLQMNSLRAEDTAVYYCARDEAAAGYYGMDVWGQGTTVTVSSGGGGSGGGGSGGGGSGGGGSDIQMTQSPSSLSASVGDRVTITCQAGQDISNYLNWYQQKPGKAPKLLIYDASNLETGVPSRFSGSGSGTDFTLTISSLQPEDFATYYCQQTYSTPITFGQGTKLEIK |
| – | – | – | – | binds | binds | binds | binds | MAdCAM antibody Clone ID 2 of Table 6 (scFv) (scFv) scFv: QVQLVQSGAEVKKPGASVKVSCKASGYPFIGYYLHWVRQAPGQGLEWMGIINPSGGSTSYAQKFQGRVTMTRDTSTSTVYMELSSLRSEDTAVYYCAREGRLSYGMDAWGQGTLVTVSSGGGGSGGGGSGGGGSGGGGSDIQMTQSPSSLSASVGDRVTITCRASQSISSYLAWYQQKPGKAPKLLIYGASTLESGVPSRFSGSGSGTDFTLTISSLQPEDFATYYCQQTWGPPFTFGQGTKLEIK |

More lines, now with the values behind:

| Binder | binding result [1] | binding result [2] | binding result [3] | binding result [4] | binding result [5] | binding result [6] | binding result [7] | binding result [8] |
| --- | --- | --- | --- | --- | --- | --- | --- | --- |
| MAdCAM antibody Clone ID 75 of Table 7 (IgG) (antibody, V domains shown, IgG format) VH: EVQLLESGGGLVQPGGSLRLSCAASGFTFSDFWMHWVRQAPGKGLEWISYISGDSGYTNYADSVKGRFTISRDNSKNTLYLQMNSLRAEDTAVYYCARDRPYYYYMDVWGKGTTVTVSS VL: DIQMTQSPSSLSASVGDRVTITCRASQSVSRSLAWYQQKPGKAPKLLIYAASSLQSGVPSRFSGSGSGTDFTLTISSLQPEDFATYYCQQYKSYPVTFGQGTKVEIK | binds | binds | binds | binds | – | – | – | – |
| MAdCAM antibody Clone ID 63 of Table 6 (scFv) (scFv) scFv: EVQLLESGGGLVKPGGSLRLSCAASGFTFDDYAMHWVRQAPGKGLEWVASITSSSAFIDYAASVKGRFTISRDDSKNTLYLQMNSLKTEDTAVYYCARERVDWNSYFDLWGRGTLVTVSSGGGGSGGGGSGGGGSGGGGSEIVMTQSPATLSVSPGERATLSCRASQGISNSYLAWYQQKPGQAPRLLIYGASTRATGIPARFSGSGSGTEFTLTISSLQSEDFAVYYCQQYYTYPPTFGPGTKVDIK | – | – | – | – | binds | binds | binds | binds |
| MAdCAM antibody Clone ID 5 of Table 6 (scFv) (scFv) scFv: EVQLLESGGGLVQPGGSLRLSCAASGFTFSSYWMHWVRQAPGKGLEWVSSISPGGSNIDYADSVKGRFTISRDNSKNTLYLQMNSLRAEDTAVYYCAREVQLSHYDYWGQGTLVTVSSGGGGSGGGGSGGGGSGGGGSDIQMTQSPSSLSASVGDRVTITCRASQGISNSLAWYQQKPGKAPKLLIYGASSLQSGVPSRFSGSGSGTDFTLTISSLQPEDFATYYCQQANSFPFTFGQGTKVEIK | – | – | – | – | binds | binds | binds | binds |
| MAdCAM antibody Clone ID 4 of Table 6 (scFv) (scFv) scFv: QVQLVQSGAEVKKPGASVKVSCKASGGTFSSYAISWVRQAPGQGLEWMGSINPSGDTTSYAQKFQGRVTMTRDTSTSTVYMELSSLRSEDTAVYYCAKDKAQWLVGYFDYWGQGTLVTVSSGGGGSGGGGSGGGGSGGGGSDIQMTQSPSSLSASVGDRVTITCQASQDISNSLNWYQQKPGKAPKLLIYAASSLQSGVPSRFSGSGSGTDFTLTISSLQPEDFATYYCQQSYSSVITFGQGTKVEIK | – | – | – | – | binds | binds | binds | binds |
| MAdCAM antibody Clone ID 19 of Table 6 (scFv) (scFv) scFv: EVQLLESGGGLVQPGGSLRLSCAASGFTFDDYAMHWVRQAPGKGLEWVSGISWNSGSIGYADSVKGRFTISRDNSKNTLYLQMNSLRAEDTAVYYCAKDIVAAGHYYYGMDVWGQGTTVTVSSGGGGSGGGGSGGGGSGGGGSDIQMTQSPSSLSASVGDRVTITCQASQDISNYLNWYQQKPGKAPKLLIYDASNLETGVPSRFSGSGSGTDFTLTISSLQPEDFATYYCQQSYSTPLTFGGGTKVEIK | – | – | – | – | binds | no binding | no binding | binds |
| MAdCAM antibody Clone ID 59 of Table 6 (scFv) (scFv) scFv: EVQLLESGGGLVQPGGSLRLSCAASGFTFSDFWMHWVRQAPGKGLEWISYISGDSGYTNYADSVKGRFTISRDNSKNTLYLQMNSLRAEDTAVYYCARDRPYYYYMDVWGKGTTVTVSSGGGGSGGGGSGGGGSGGGGSDIQMTQSPSSLSASVGDRVTITCRASQSVSRSLAWYQQKPGKAPKLLIYAASSLQSGVPSRFSGSGSGTDFTLTISSLQPEDFATYYCQQYKSYPVTFGQGTKVEIK | – | – | – | – | binds | binds | binds | binds |
| MAdCAM antibody Clone ID 9 of Table 6 (scFv) (scFv) scFv: EVQLLESGGGLVQPGGSLRLSCAASGFTFSDYYMNWVRQAPGKGLEWVSVIGESGGSTYYADSVKGRFTISRDNSKNTLYLQMNSLRAEDTAVYYCAADPVSRWPKHGGGDYWGQGTLVTVSSGGGGSGGGGSGGGGSGGGGSDIQMTQSPSSLSASVGDRVTITCRASQGISSSLAWYQQKPGKAPKLLIYAASTLQSGVPSRFSGSGSGTDFTLTISSLQPEDFATYYCQQSYSTPWTFGQGTKVEIK | – | – | – | – | binds | binds | binds | binds |
